Results reported in patent US20250382373A1 (BIOCYTOGEN PHARMACEUTICALS BEIJING, published 2025).
Like-named read-outs stand apart in the source and are kept apart here.

Experiments:
[1] = target: T1, His-tagged human EGFR protein (human, UniProt P00533 25-645); experiment: SPR (Biacore 8K), Protein A chip
T1 construct: Bought protein; also called hEGFR-His; not shown: His tag

[2] = target: T2, His-tagged monkey EGFR protein (monkey (crab-eating macaque; Macaca …, UniProt A0A2K5WK39 25-645); experiment: SPR (Biacore 8K), Protein A chip
T2 construct: also called fasEGFR-His; not shown: His tag

[3] = target: T3, His-tagged human MET protein (human, UniProt P08581 25-932); experiment: SPR (Biacore 8K), Protein A chip
T3 construct: Bought protein; also called hMET-His; not shown: His tag

His-tagged dog MET [4] = target: T4, His-tagged dog MET (dog, UniProt Q75ZY9 25-933, limits assumed); experiment: SPR (Biacore 8K), antibody on Protein A chip
T4 construct: Bought protein; also called dMET-His; not shown: His tag

[5] = target: T5, monkey MET on fasMET-NIH3T3 cells (monkey (Macaca fascicularis)); experiment: flow cytometry on fasMET-NIH3T3 cells
[6] = target: T6, dog MET on dMET-NIH3T3 cells (dog (Canis lupus, printed 'Cans lupus'), UniProt Q75ZY9 25-1382); experiment: flow cytometry on dMET-NIH3T3 cells
T6 construct: also called dMET-NIH13T3 [sic]

His-tagged dog MET [7] = target: T4, His-tagged dog MET; experiment: SPR (Biacore 8K), antibody on Protein A chip; remark: listed apart in the source
[8] = target: T3, His-tagged human MET protein; experiment: SPR (Biacore 8K), antibody on Protein A chip
[9] = target: human MET on hMET-NIH3T3 cells (human, UniProt P08581 25-1390); experiment: flow cytometry on hMET-NIH3T3 cells
His-tagged dog MET [10] = target: T4, His-tagged dog MET; experiment: SPR (Biacore 8K), antibody on Protein A chip; legend: - means no binding
[11] = target: T6, dog MET on dMET-NIH3T3 cells; experiment: flow cytometry on dMET-NIH3T3 cells (5.33% positive cells)
human MET on SNU-5 cells = target: T7, human MET on SNU-5 cells (human, UniProt P08581 25-1390); experiment: flow cytometry on SNU-5 cells
T7 construct: whole, on cells; Endogenous MET of SNU-5 cells

[12] = target: T5, monkey MET on fasMET-NIH3T3 cells; experiment: flow cytometry on fasMET-NIH3T3 cells (0.18% positive cells)
[13] = target: T5, monkey MET on fasMET-NIH3T3 cells; experiment: flow cytometry on fasMET-NIH3T3 cells; remark: listed apart in the source
[14] = target: T3, His-tagged human MET protein; experiment: SPR (Biacore 8K), antibody on Protein A chip; remark: listed apart in the source
[15] = target: T6, dog MET on dMET-NIH3T3 cells; experiment: flow cytometry on dMET-NIH3T3 cells (1.44% positive cells)

Sequence of human MET on hMET-NIH3T3 cells (P08581 25-1390 limits assumed): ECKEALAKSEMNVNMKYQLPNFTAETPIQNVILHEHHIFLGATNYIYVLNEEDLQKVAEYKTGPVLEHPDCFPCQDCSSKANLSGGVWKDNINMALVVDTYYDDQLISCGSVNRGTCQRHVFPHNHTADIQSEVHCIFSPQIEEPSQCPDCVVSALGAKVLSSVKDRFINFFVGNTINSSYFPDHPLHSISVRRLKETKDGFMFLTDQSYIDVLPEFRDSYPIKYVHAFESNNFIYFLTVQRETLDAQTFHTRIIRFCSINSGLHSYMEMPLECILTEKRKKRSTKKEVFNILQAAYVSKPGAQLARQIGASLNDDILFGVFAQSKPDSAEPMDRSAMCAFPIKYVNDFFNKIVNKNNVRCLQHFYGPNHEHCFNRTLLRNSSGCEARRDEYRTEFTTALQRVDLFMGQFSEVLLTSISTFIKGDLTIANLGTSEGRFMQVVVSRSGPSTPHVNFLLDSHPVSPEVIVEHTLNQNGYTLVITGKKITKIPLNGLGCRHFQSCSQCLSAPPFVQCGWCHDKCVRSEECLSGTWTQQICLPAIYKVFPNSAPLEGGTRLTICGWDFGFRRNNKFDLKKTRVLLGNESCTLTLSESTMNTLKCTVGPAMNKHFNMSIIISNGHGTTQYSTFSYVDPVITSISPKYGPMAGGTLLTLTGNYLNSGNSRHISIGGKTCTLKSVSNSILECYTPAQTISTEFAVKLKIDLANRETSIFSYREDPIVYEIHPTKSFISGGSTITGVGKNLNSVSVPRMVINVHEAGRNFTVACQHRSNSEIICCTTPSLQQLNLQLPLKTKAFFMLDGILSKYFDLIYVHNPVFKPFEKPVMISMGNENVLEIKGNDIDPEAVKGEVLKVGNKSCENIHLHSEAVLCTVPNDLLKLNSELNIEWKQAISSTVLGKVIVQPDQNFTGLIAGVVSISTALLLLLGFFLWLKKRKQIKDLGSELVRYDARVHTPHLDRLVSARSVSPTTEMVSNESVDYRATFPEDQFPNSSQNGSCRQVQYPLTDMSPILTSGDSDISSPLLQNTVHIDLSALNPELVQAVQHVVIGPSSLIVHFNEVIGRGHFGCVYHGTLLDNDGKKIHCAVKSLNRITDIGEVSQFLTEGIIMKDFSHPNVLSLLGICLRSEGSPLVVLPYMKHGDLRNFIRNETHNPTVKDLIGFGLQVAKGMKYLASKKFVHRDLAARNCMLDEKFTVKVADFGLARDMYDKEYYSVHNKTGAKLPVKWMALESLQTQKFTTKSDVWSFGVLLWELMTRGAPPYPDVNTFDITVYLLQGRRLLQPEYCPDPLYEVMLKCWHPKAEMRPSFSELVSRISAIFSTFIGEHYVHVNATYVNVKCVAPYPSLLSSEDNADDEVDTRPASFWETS
T5 sequence (chain, as listed by the source limits assumed): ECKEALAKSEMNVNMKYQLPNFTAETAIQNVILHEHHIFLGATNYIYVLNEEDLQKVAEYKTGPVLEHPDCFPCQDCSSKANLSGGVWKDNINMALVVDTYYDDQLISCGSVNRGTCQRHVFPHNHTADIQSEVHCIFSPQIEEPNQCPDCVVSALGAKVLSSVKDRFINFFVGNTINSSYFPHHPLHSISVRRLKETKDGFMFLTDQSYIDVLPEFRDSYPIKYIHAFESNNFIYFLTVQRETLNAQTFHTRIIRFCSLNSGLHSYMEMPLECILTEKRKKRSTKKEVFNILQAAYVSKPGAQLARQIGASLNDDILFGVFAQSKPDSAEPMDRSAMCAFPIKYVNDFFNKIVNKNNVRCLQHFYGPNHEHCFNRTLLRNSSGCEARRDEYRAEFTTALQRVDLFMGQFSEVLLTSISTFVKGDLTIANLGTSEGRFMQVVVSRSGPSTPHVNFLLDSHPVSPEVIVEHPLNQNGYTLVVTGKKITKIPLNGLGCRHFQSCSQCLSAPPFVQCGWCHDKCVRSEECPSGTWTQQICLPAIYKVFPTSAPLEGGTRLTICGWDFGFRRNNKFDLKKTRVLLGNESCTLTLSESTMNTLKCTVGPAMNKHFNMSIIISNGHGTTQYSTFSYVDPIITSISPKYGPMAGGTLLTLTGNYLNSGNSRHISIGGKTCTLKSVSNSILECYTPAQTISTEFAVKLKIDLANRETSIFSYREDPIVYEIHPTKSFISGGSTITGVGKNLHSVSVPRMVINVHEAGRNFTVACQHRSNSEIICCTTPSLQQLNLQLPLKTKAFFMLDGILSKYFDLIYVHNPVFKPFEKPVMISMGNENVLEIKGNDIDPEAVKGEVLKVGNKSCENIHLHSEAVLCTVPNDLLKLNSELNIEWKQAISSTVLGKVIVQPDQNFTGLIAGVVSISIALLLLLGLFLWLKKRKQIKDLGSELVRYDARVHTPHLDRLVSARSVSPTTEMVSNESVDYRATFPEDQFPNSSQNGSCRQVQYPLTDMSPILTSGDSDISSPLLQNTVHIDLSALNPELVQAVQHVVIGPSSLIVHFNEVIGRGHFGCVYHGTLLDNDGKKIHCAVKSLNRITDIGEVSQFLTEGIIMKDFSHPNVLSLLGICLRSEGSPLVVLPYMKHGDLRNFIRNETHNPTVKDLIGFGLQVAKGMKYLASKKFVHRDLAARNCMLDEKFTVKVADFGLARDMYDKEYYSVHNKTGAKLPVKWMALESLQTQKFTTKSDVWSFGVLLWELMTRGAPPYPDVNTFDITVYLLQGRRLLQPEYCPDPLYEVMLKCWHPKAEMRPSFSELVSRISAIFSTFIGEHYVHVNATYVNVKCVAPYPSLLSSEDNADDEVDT
T3 sequence (P08581 25-932 limits assumed): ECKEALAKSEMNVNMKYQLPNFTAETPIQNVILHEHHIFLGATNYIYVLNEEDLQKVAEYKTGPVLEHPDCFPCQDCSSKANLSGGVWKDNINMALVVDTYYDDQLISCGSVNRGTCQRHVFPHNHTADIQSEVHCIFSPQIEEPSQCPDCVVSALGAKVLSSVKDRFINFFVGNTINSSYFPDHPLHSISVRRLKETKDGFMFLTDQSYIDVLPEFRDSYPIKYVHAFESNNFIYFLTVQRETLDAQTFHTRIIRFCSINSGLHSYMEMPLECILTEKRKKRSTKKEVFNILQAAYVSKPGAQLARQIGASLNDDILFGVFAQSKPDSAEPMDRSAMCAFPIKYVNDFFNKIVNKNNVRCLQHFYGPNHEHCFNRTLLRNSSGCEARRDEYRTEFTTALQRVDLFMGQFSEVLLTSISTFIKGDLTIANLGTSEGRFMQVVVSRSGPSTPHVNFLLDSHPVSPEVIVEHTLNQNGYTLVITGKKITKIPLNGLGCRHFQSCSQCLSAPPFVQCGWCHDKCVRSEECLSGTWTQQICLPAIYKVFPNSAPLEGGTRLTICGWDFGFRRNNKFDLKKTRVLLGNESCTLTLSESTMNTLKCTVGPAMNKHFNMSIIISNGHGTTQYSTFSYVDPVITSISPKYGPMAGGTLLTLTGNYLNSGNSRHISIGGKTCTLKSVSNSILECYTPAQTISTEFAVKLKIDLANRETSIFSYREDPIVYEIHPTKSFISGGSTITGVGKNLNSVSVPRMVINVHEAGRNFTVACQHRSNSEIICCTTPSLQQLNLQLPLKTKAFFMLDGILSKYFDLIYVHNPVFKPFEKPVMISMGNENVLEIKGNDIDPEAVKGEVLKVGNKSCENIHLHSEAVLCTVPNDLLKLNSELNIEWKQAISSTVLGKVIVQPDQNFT
T7 sequence (P08581 25-1390): as the sequence (P08581 25-1390 limits assumed) above

Binder | Percentage of Positive Cells [5] [%] | Percentage of Positive Cells [6] [%] | Kd (His-tagged dog MET [7]) [nM] | koff (His-tagged dog MET [7]) [s⁻¹] | kon (His-tagged dog MET [7]) [M⁻¹ s⁻¹] | Kd [8] [nM] | koff [8] [s⁻¹] | kon [8] [M⁻¹ s⁻¹] | Percentage of Positive Cells [9] [%] | further results
Telisotuzumab analog (antibody, human IgG1, kappa, V domains shown, Humanized IgG1 against MET) VH: QVQLVQSGAEVKKPGASVKVSCKASGYIFTAYTMHWVRQAPGQGLEWMGWIKPNNGLANYAQKFQGRVTMTRDTSISTAYMELSRLRSDDTAVYYCARSEITTEFDYWGQGTLVTVSS VL: DIVMTQSPDSLAVSLGERATINCKSSESVDSYANSFLHWYQQKPGQPPKLLIYRASTRESGVPDRFSGSGSGTDFTLTISSLQAEDVAVYYCQQSKEDPLTFGGGTKVEIKR | – | – | – | – | – | – | – | – | – | binding result [1]: no binding (tested: antigen up to 400 nM); binding result [2]: no binding (tested: antigen up to 400 nM); Kd [3]: 0.972 nM; koff [3]: 0.0001 s⁻¹; kon [3]: 103000 M⁻¹ s⁻¹; binding result (His-tagged dog MET [4]): no binding
M-7D3 (antibody, V domains shown) VH: QVQLVQSGLTLVKPTQTLTLTCTFSGFSLSTTGVSVGWIRQPPGKALEWLALIYWDDDKHYSPSLKSRLTITKDTSKNQVVLTMTNMDPVDTATYYCAPGGYSSGWPGFYDLWGRGTLVTVSS VL: not shown | 63.4 | 74.7 | 62.3 | 0.00343 | 55000 | 11.6 | 0.000684 | 59100 | 99.6 | –
M-6D12 (antibody, V domains shown) VH: QVQLQQSGPGLVKPSGTLSLTCAVSGGSISKSNWWTWVRQPPGKGLEWIGEIHHSGSTNYNPSLKSRVTISVEKTKNQFSLKLSSVTAADTAVYYCARGGGYGYDFDYWGQGTLVTVSS VL: not shown | 71.4 | – | – | – | – | 60.6 | 0.00237 | 39100 | 99.8 | binding result (His-tagged dog MET [10]): no binding; binding result [11]: no binding
M-2F12 (antibody, V domains shown) VH: QVQLVQSGGGVVQPGRSLRLSCAASGFTFNNYGMDWVRQAPGKGLEWVAVIWNDGSKKYYGDFVKGRFTISRDNSKNTLYLEMNSLRAEDTAVYYCARDLEGGQLADAFDVWGQGTMVTVSS VL: not shown | – | – | – | – | – | – | – | – | – | Percentage of Positive Cells (human MET on SNU-5 cells): 95.6%; binding result [12]: no binding
M-6E6 (antibody, V domains shown) VH: QVQLEQSGPTLVKPTQTLTLTCTFSGFSLSSTGVAMGWIRQPPGKALEWLALIYWDDDKHYSPSLESRLTITKDTFKNQVVLSMTNMDPLDTATYYCTHRRYTGYEDYWGQGILVTVSS VL: not shown | 49.2 | 73.2 | 253 | 0.0175 | 69000 | 10.1 | 0.000634 | 62500 | 99.2 | –
M-8E2 (antibody, V domains shown) VH: QVQLVQSGPALVKPTQTLTLTCTFSGFSLYTSGVAVAWIRQPPGKALEWLALIYWDDDKWYTPSLKTRLSITKDTSKNQVVLTMTNMDPVDTATYYCAHRGSFNWNYGYFDYWGQGTLVTVSS VL: not shown | 62.2 | 78.8 | 50 | 0.00384 | 76900 | 13.1 | 0.000683 | 52200 | 99.6 | –
M-2G10 (antibody, V domains shown) VH: EVQLVESGGGVVQPGRSLRLSCAASGFTFNICGIHWVRQAPGKGLEWVATISHDANDKYYADSVKGRFTISRDNSKNTLYLQMNSLRAEDTAVYYCARDGNRGYDGYFDYWGQGTLVTVSS VL: not shown | – | – | – | – | – | – | – | – | – | Percentage of Positive Cells [13]: 21%; Percentage of Positive Cells (human MET on SNU-5 cells): 98.7%; Kd [14]: 31.9 nM; koff [14]: 0.00605 s⁻¹; kon [14]: 189000 M⁻¹ s⁻¹; binding result [1]: no binding (tested: antigen up to 400 nM); binding result [2]: no binding (tested: antigen up to 400 nM); Kd [3]: 63.6 nM; koff [3]: 0.00362 s⁻¹; kon [3]: 57000 M⁻¹ s⁻¹
M-8H10 (antibody, V domains shown) VH: QVQLQQWGAGLLKPSETLSLTCAVYGGSFSGYYWTWIRQPPGKGLEWIGESNHGGSTNFNPSLKSRVTISVDTSKNHFSLKLSPVTAADTAVYYCTRGGTIFGLKDAFDIWGQGTMVTVSS VL: not shown | 67.8 | – | – | – | – | 19.9 | 0.00138 | 69700 | 99.8 | binding result (His-tagged dog MET [10]): no binding; binding result [15]: no binding
